Test results reported in the Immune Epitope Database (IEDB).

Assays:
Assay in all cases: IEDB peptide-MHC binding, purified MHC/competitive/radioactivity; filed as Kd, often an IC50 or EC50 that approximates it; ≥ and ≤ were set here for values at or beyond the usual limits of such assays
HLA-A*02:06 = target: HLA-A*02:06
HLA-A*02:02 = target: HLA-A*02:02
HLA-A*02:03 = target: HLA-A*02:03
HLA-A*33:01 = target: HLA-A*33:01
HLA-A*03:01 = target: HLA-A*03:01
HLA-A*68:01 = target: HLA-A*68:01
HLA-A*11:01 = target: HLA-A*11:01
HLA-A*31:01 = target: HLA-A*31:01
[1] = source organism: Vaccinia virus WR
[2] = source organism: Dengue virus 2 Jamaica/1409/1983
[3] = source organism: SARS coronavirus Tor2
[4] = source organism: Lymphocytic choriomeningitis virus (strain WE)
[5] = source organism: Mammarenavirus whitewaterense
[6] = source organism: Mammarenavirus brazilense
[7] = source organism: Mammarenavirus juninense
[8] = source organism: Vaccinia virus Copenhagen

AIDRQVSVKL was tested, and the Kd (HLA-A*02:06; [1]) was no less than 32000 nM, the Kd (HLA-A*02:02; [1]) was 7900 nM and the Kd (HLA-A*02:03; [1]) was 13100 nM.
ALGMMVLKIV was tested, and the Kd (HLA-A*02:03; [2]) was 55.9 nM.
In the case of ALLFLMSFT, the Kd (HLA-A*02:06; [3]) is reported as 128 nM, the Kd (HLA-A*02:02; [3]) is reported as 2830 nM and the Kd (HLA-A*02:03; [3]) is reported as 1990 nM.
In the case of ALLSCIRNA, the Kd (HLA-A*02:06; [1]) is reported as 77.4 nM, the Kd (HLA-A*02:02; [1]) is reported as 120 nM and the Kd (HLA-A*02:03; [1]) is reported as 6.22 nM.
ALYSPPLISI showed a Kd (HLA-A*02:06; [1]) of 162 nM, a Kd (HLA-A*02:02; [1]) of 1.42 nM and a Kd (HLA-A*02:03; [1]) of 150 nM.
Sequence ATQFNFNGHT has a Kd (HLA-A*02:06; [1]) of no less than 26500 nM, a Kd (HLA-A*02:02; [1]) of no less than 28600 nM and a Kd (HLA-A*02:03; [1]) of 11500 nM.
Sequence CQCTVQEFI has a Kd (HLA-A*02:06; [1]) of 1130 nM, a Kd (HLA-A*02:02; [1]) of 2050 nM and a Kd (HLA-A*02:03; [1]) of 4790 nM.
Work on CTEETKRNIA yielded a Kd (HLA-A*02:06; [1]) of no less than 69800 nM, a Kd (HLA-A*02:02; [1]) of no less than 70000 nM and a Kd (HLA-A*02:03; [1]) of no less than 50100 nM.
Work on CVDHPFIYV yielded a Kd (HLA-A*02:06; [1]) of 148 nM, a Kd (HLA-A*02:02; [1]) of 300 nM and a Kd (HLA-A*02:03; [1]) of 1410 nM.
DLLFNEKLKV gave a Kd (HLA-A*02:06; [1]) of 2020 nM, a Kd (HLA-A*02:02; [1]) of 357 nM and a Kd (HLA-A*02:03; [1]) of 317 nM.
For DLLNVTYNI, the Kd (HLA-A*02:06; [1]) was 1280 nM, the Kd (HLA-A*02:02; [1]) was 297 nM and the Kd (HLA-A*02:03; [1]) was 194 nM.
For DVERLQMAGV, the Kd (HLA-A*02:06; [1]) was 776 nM, the Kd (HLA-A*02:02; [1]) was 215 nM and the Kd (HLA-A*02:03; [1]) was 104 nM.
For DVSVSVGTGI, the Kd (HLA-A*02:06; [1]) was no less than 22100 nM, the Kd (HLA-A*02:02; [1]) was 17900 nM and the Kd (HLA-A*02:03; [1]) was 5830 nM.
Work on EMKYALINL yielded a Kd (HLA-A*02:06; [1]) of no less than 77100 nM, a Kd (HLA-A*02:02; [1]) of 3060 nM and a Kd (HLA-A*02:03; [1]) of 63.5 nM.
Sequence FIVYGRSNA has a Kd (HLA-A*02:06; [1]) of 8750 nM, a Kd (HLA-A*02:02; [1]) of 6090 nM and a Kd (HLA-A*02:03; [1]) of 370 nM.
FLPQIGGEAI showed a Kd (HLA-A*02:06; [1]) of 10.1 nM, a Kd (HLA-A*02:02; [1]) of 0.998 nM and a Kd (HLA-A*02:03; [1]) of 13.5 nM.
With FQPHQLWTT the Kd (HLA-A*02:06; source organism: Dengue virus 1 Brazil/97-11/1997) was 6.01 nM.
FSTSAYLISI gave a Kd (HLA-A*02:06; [4]) of 3.48 nM, a Kd (HLA-A*02:02; [4]) of 0.675 nM and a Kd (HLA-A*02:03; [4]) of 13.5 nM.
GAAITLVVI showed a Kd (HLA-A*02:06; [1]) of 2950 nM, a Kd (HLA-A*02:02; [1]) of 6450 nM and a Kd (HLA-A*02:03; [1]) of 3280 nM.
GARVIWMDA gave a Kd (HLA-A*02:06; [1]) of 2140 nM, a Kd (HLA-A*02:02; [1]) of 4600 nM and a Kd (HLA-A*02:03; [1]) of 9140 nM.
With GIKNLKSLL the Kd (HLA-A*02:06; [1]) was no less than 61200 nM, the Kd (HLA-A*02:02; [1]) was 2140 nM and the Kd (HLA-A*02:03; [1]) was 2620 nM.
Work on GLIVILFIM yielded a Kd (HLA-A*02:06; [1]) of 5290 nM, a Kd (HLA-A*02:02; [1]) of 13400 nM and a Kd (HLA-A*02:03; [1]) of 1390 nM.
GLMILLTGGA showed a Kd (HLA-A*02:03; source organism: Dengue virus 3 Martinique/1243/1999) of 23.1 nM.
Work on GLSASDVDM yielded a Kd (HLA-A*02:06; [1]) of 13800 nM, a Kd (HLA-A*02:02; [1]) of 497 nM and a Kd (HLA-A*02:03; [1]) of 3540 nM.
GLVDVCFWS showed a Kd (HLA-A*02:06; [5]) of 533 nM, a Kd (HLA-A*02:02; [5]) of 116 nM and a Kd (HLA-A*02:03; [5]) of 1070 nM.
GQIDNFSLGV gave a Kd (HLA-A*02:06; [2]) of 5.63 nM.
Work on GTKGKLYIA yielded a Kd (HLA-A*02:06; [1]) of 2530 nM, a Kd (HLA-A*02:02; [1]) of 1720 nM and a Kd (HLA-A*02:03; [1]) of 55.9 nM.
Work on GTKGKLYIAL yielded a Kd (HLA-A*02:06; [1]) of no less than 37200 nM, a Kd (HLA-A*02:02; [1]) of 9070 nM and a Kd (HLA-A*02:03; [1]) of 7840 nM.
With IADIRDKYM the Kd (HLA-A*02:06; [1]) was no less than 58100 nM, the Kd (HLA-A*02:02; [1]) was 63.5 nM and the Kd (HLA-A*02:03; [1]) was 230 nM.
IAIFNNRNL was tested, and the Kd (HLA-A*02:06; [1]) was 13400 nM, the Kd (HLA-A*02:02; [1]) was 9230 nM and the Kd (HLA-A*02:03; [1]) was 10500 nM.
Work on ICFWSTLFFT yielded a Kd (HLA-A*02:06; [6]) of no less than 34900 nM, a Kd (HLA-A*02:02; [6]) of no less than 33200 nM and a Kd (HLA-A*02:03; [6]) of no less than 35100 nM.
With IISLFYTFAI the Kd (HLA-A*02:06; [1]) was 146 nM, the Kd (HLA-A*02:02; [1]) was 108 nM and the Kd (HLA-A*02:03; [1]) was 43.7 nM.
Sequence ILATLNTLI has a Kd (HLA-A*02:06; [1]) of 40.5 nM, a Kd (HLA-A*02:02; [1]) of 0.413 nM and a Kd (HLA-A*02:03; [1]) of 0.231 nM.
ILAVVSVSPL gave a Kd (HLA-A*02:03; source organism: Dengue virus 2 16681-PDK53) of 39.5 nM.
IMETIDPVYI showed a Kd (HLA-A*02:06; [1]) of 349 nM, a Kd (HLA-A*02:02; [1]) of 28.6 nM and a Kd (HLA-A*02:03; [1]) of 239 nM.
For ITLILSNKLL, the Kd (HLA-A*02:06; [1]) was 3890 nM, the Kd (HLA-A*02:02; [1]) was 1090 nM and the Kd (HLA-A*02:03; [1]) was 4690 nM.
In the case of IVSLCPTKKL, the Kd (HLA-A*02:06; [1]) is reported as no less than 28400 nM, the Kd (HLA-A*02:02; [1]) is reported as 9.46 nM and the Kd (HLA-A*02:03; [1]) is reported as 29.5 nM.
KIVQLPKRGV was tested, and the Kd (HLA-A*02:06; [1]) was 2250 nM, the Kd (HLA-A*02:02; [1]) was 4120 nM and the Kd (HLA-A*02:03; [1]) was 51.4 nM.
KLKSMEAEMI showed a Kd (HLA-A*02:06; source organism: Homo sapiens) of 7830 nM.
KLLIVLTCI gave a Kd (HLA-A*02:06; [3]) of 449 nM, a Kd (HLA-A*02:02; [3]) of 260 nM and a Kd (HLA-A*02:03; [3]) of 1940 nM.
In the case of KLVETGFVI, the Kd (HLA-A*02:06; [1]) is reported as 200 nM, the Kd (HLA-A*02:02; [1]) is reported as 13200 nM and the Kd (HLA-A*02:03; [1]) is reported as 1070 nM.
KVEKYLPEV showed a Kd (HLA-A*02:06; [1]) of 116 nM, a Kd (HLA-A*02:02; [1]) of 1050 nM and a Kd (HLA-A*02:03; [1]) of 171 nM.
Sequence KVIKLVKSL has a Kd (HLA-A*02:06; [1]) of 260 nM, a Kd (HLA-A*02:02; [1]) of 578 nM and a Kd (HLA-A*02:03; [1]) of 42.5 nM.
KVSCTILAAV gave a Kd (HLA-A*02:06; [2]) of 12.7 nM and a Kd (HLA-A*02:03; [2]) of 54.4 nM.
KVYLSTFNM showed a Kd (HLA-A*02:06; [1]) of 265 nM, a Kd (HLA-A*02:02; [1]) of 482 nM and a Kd (HLA-A*02:03; [1]) of 786 nM.
For LNISGYNYSL, the Kd (HLA-A*02:06; [6]) was 1090 nM, the Kd (HLA-A*02:02; [6]) was 77.1 nM and the Kd (HLA-A*02:03; [6]) was no less than 49000 nM.
For LVAEHRFENM, the Kd (HLA-A*02:06; [1]) was 723 nM, the Kd (HLA-A*02:02; [1]) was 2050 nM and the Kd (HLA-A*02:03; [1]) was 462 nM.
With LVFLWLLWPV the Kd (HLA-A*02:06; [3]) was 0.564 nM, the Kd (HLA-A*02:02; [3]) was 0.926 nM and the Kd (HLA-A*02:03; [3]) was 1.93 nM.
In the case of MIIGEPIIVA, the Kd (HLA-A*02:06; [1]) is reported as 124 nM, the Kd (HLA-A*02:02; [1]) is reported as 42 nM and the Kd (HLA-A*02:03; [1]) is reported as 111 nM.
RNPYENLLYK gave a Kd (HLA-A*33:01; [7]) of no less than 35900 nM, a Kd (HLA-A*03:01; [7]) of 2470 nM and a Kd (HLA-A*68:01; [7]) of 12600 nM. For the same sequence, the Kd (HLA-A*11:01; [7]) was 628 nM and the Kd (HLA-A*31:01; [7]) was 4760 nM.
Sequence RQILDNAAK has a Kd (HLA-A*33:01; [1]) of no less than 77700 nM, a Kd (HLA-A*03:01; [1]) of 117 nM and a Kd (HLA-A*68:01; [1]) of no less than 35300 nM. For the same sequence, the Kd (HLA-A*11:01; [1]) was 144 nM and the Kd (HLA-A*31:01; [1]) was 1110 nM.
RQLFKPLTK gave a Kd (HLA-A*33:01; [3]) of no less than 77700 nM, a Kd (HLA-A*03:01; [3]) of 92.2 nM and a Kd (HLA-A*68:01; [3]) of no less than 77700 nM. It also gave a Kd (HLA-A*11:01; [3]) of 662 nM and a Kd (HLA-A*31:01; [3]) of 2380 nM.
RVIWMDAYK gave a Kd (HLA-A*33:01; [8]) of 4820 nM, a Kd (HLA-A*03:01; [8]) of 4.03 nM and a Kd (HLA-A*68:01; [8]) of 0.827 nM. For the same sequence, the Kd (HLA-A*11:01; [8]) was 0.793 nM and the Kd (HLA-A*31:01; [8]) was 1.05 nM.
